Reference: publication PMC4490372, “Architecture of TFIIIC and its role in RNA polymerase III pre-initiation complex assembly” (Nature Communications, 2015)
Where a chain is given by its changes, count along the chain named.

What was measured:
Assay in all cases: pull-down; 15 μg GST-tagged τ131 on Glutathione Sepharose 4B; 300 nM τ138 or Bdp1, or 1 μM Brf1–TBP; 50 mM Tris pH 7.5, 150 mM NaCl, 2 mM DTT, 0.1% Tween20; 4 °C, 4 h
Settings in all cases: both partners purified
[1] = biological target: T1, GST-tagged τ131 (1–580), wild type (S. cerevisiae, UniProt P33339 1-580)
T1 construct: τ131 (Tfc4) of S. cerevisiae TFIIIC, residues 1-580 (extended N terminus and TPR array); also called GST-τ131 (1–580); longer τ131 protein; source: E. coli BL21 (DE3) Gold, purified (GST column, S200 SEC)
T1 sequence (looked up): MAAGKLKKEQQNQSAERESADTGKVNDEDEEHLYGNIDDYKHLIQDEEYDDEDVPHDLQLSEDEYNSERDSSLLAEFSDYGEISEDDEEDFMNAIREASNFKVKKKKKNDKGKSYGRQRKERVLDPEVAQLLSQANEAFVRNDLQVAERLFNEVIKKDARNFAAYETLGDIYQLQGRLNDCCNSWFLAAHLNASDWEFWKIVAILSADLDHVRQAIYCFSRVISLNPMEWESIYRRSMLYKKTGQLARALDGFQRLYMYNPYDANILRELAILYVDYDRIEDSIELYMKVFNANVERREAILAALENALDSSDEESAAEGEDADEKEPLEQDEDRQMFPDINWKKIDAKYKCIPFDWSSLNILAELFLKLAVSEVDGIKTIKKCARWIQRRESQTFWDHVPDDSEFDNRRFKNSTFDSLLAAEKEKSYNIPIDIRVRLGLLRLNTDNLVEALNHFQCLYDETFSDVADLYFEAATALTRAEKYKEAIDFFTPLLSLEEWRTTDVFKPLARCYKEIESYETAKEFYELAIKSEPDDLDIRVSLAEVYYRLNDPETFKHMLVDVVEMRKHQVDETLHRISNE

[2] = biological target: T2, GST-tagged τ131 (1–580) D468K (S. cerevisiae, UniProt P33339 1-580, D468K)
T2 construct: τ131 (Tfc4) of S. cerevisiae TFIIIC, residues 1-580, point mutant; also called D468K mutant of τ131 (1–580); source: E. coli BL21 (DE3) Gold, purified (GST column, S200 SEC)
T2 sequence (looked up): T1 sequence (looked up) with D468K

[3] = biological target: T3, GST-tagged τ131 (1–580) L469K (S. cerevisiae, UniProt P33339 1-580, L469K)
T3 construct: τ131 (Tfc4) of S. cerevisiae TFIIIC, residues 1-580, point mutant; also called L469K mutant of τ131 (1–580); source: E. coli BL21 (DE3) Gold, purified (GST column, S200 SEC)
T3 sequence (looked up): T1 sequence (looked up) with L469K

Measured: binding result

B1: Brf1–TBP fusion protein Brf1 (1–382)-TBP (61–240)-Brf1 (439–596) (other, UniProt P29056 1-382, looked up)
chain: MPVCKNCHGTEFERDLSNANNDLVCKACGVVSEDNPIVSEVTFGETSAGAAVVQGSFIGAGQSHAAFGGSSALESREATLNNARRKLRAVSYALHIPEYITDAAFQWYKLALANNFVQGRRSQNVIASCLYVACRKEKTHHMLIDFSSRLQVSVYSIGATFLKMVKKLHITELPLADPSLFIQHFAEKLDLADKKIKVVKDAVKLAQRMSKDWMFEGRRPAGIAGACILLACRMNNLRRTHTEIVAVSHVAEETLQQRLNEFKNTKAAKLSVQKFRENDVEDGEARPPSFVKNRKKERKIKDSLDKEEMFQTSEEALNKNPILTQVLGEQELSSKEVLFYLKQFSERRARVVERIKATNGIDGENIYHEGSENETRKRKLSESGIVPTLQNIVATVTLGCRLDLKTVALHARNAEYNPKRFAAVIMRIREPKTTALIFASGKMVVTGAKSEDDSKLASRKYARIIQKIGFAAKFTDFKIQNIVGSCDVKFPIRLEGLAFSHGTFSSYEPELFPGLIYRMVKPKIVLLIFVSGKIVLTGAKQREEIYQAFEAIYPVLSEFRKMPRNLHLLPTTDTYLSKVSDDPDNLEDVDDEELNAHLLNEEASKLKERIWIGLNADFLLEQESKRLKQEADIATGNTSVKKKRTRRRNNTRSDEPTKTVDAAAAIGLMSDLQDKSGLHAALKAAEESGDFTTADSVKNMLQKASFSKKINYDAIDGLFR
notes: Brf1, subunit of TFIIIB, residues 1-382; TBP, subunit of TFIIIB, residues 61-240; Brf1, subunit of TFIIIB, residues 439-596; source: E. coli BL21 Star (DE3) pRARE, purified (Ni-NTA, HiTrap SP); not shown: His6, C-terminal, kept
binds: all assays above
